EC50 data for one molecule are collected here from patent publication US20220162310A1.

In the experiment the target is human TIGIT-Fc antigen (human) (UniProt Q495A1). Put plainly: ELISA on plate-coated human TIGIT-Fc (3 ug/ml), scFv from 80 nM in 1/3 steps, anti-His-HRP, OD450; value is C of the printed 4-P fit; the sheet prints no unit, nM from paragraph 123. A general note: In an ELISA, binding on a coated surface is turned into a signal by an enzyme label.
Chain of human TIGIT-Fc antigen (human) (Q495A1 22-141 T103A limits assumed): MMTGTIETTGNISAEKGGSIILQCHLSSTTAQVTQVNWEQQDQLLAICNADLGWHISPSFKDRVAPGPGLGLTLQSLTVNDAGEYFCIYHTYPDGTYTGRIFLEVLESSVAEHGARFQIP

B1: 1F10 (scFv-type anti-TIGIT antibody) (scFv, part only; not given: linker, domain order, His tag, V domains shown, not shown: another chain or arm of the molecule; small tags and cut ends)
VH: EVQLVESGGGLVKPGGSLRISCAASGFTFSNYNMIWVRQAPGKGLEWVSSISSSASYIYYADSVKGRFTISRDNAKNSLYLQMNSLRAEDTAVYYCARDEGSRDSWNNGPYYYSGMDVWGQGTTVTVSS
VL: AIQMTQSPSSLSASVGDRVTITCRASQSISRYLNWYQHKPGKAPKLLIYGASSLQSGVPSRFRGSGSGTDFTLTISSLQPEDFATYYCQQSYTTPGAFTFGGGTKVEIK
On to B1, for which the EC50 (usually the midpoint of the concentration-response curve) turned out to be 526 pM.
